Laboratory results: article PMC9478674 (Proceedings of the National Academy of Sciences of the …, 2022)

Target: T1, KaiC S431E;T432A (KaiC-EA) (UniProt Q79PF4 1-519, S431E | T432A)
T1 sequence (looked up): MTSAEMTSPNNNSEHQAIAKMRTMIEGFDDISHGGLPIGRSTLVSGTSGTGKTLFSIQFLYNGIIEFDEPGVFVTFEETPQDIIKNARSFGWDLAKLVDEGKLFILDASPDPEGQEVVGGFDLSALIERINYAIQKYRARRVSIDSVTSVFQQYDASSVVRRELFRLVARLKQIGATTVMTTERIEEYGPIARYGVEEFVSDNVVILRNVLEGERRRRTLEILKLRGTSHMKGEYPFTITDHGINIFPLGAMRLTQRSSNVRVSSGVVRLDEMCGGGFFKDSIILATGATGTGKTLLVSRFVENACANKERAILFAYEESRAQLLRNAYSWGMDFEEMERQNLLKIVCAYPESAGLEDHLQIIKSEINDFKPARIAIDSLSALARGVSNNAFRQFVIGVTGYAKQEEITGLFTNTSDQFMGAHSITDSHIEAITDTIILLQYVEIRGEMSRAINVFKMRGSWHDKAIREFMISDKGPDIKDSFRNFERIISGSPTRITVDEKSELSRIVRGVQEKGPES
Test: co-IP

binding result: binds
B1: wildtype KaiB-FLAG (natural protein, UniProt Q79PF5 1-102, looked up)
chain: MSPRKTYILKLYVAGNTPNSVRALKTLKNILEVEFQGVYALKVIDVLKNPQLAEEDKILATPTLAKVLPLPVRRIIGDLSDREKVLIGLDLLYGELQDSDDF
